Laboratory results from paper PMC13388985 (Nature Communications, 2026).
Changes are numbered by the printed parent chain. No end group written: not given here.

T1: GST-tagged wild-type Af1521 macrodomain (UniProt O28751 1-192)
T1 sequence: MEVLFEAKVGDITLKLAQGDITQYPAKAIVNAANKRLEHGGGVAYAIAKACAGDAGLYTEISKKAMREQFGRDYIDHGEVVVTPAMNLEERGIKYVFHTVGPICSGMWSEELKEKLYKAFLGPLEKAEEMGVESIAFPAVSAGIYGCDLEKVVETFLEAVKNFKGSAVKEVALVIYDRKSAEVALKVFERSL

T2: GST-tagged Af1521-K35E/Y145R macrodomain (UniProt O28751 1-192, K35E | Y145R)
T2 sequence: T1 sequence with K35E, Y145R

B1: Synthetic peptide GWTARKSAEAGTAGK-amide with ADPr on Arg-5 (peptide)
peptide: GWTAR(ADP‑ribose)KSAEAGTAGK-NH2
B2: Synthetic peptide GWTARKSAAAGTAGK-amide with ADPr on Ser-7 (peptide)
peptide: GWTARKS(ADP‑ribose)AAAGTAGK-NH2

Assays:
[1] = biological target: T1, GST-tagged wild-type Af1521 macrodomain; assay: pull-down
[2] = biological target: T2, GST-tagged Af1521-K35E/Y145R macrodomain; assay: pull-down

| Binder | binding result [1] | binding result [2] |
| --- | --- | --- |
| B1 | binds | binds |
| B2 | binds | binds |
